The target of experiment [1] is T1, Recombinant Human Fc gamma RI/CD64 Protein, CF (R&D Systems), His-tagged (human, UniProt P12314 16-288).
T1 construct: also called human FcγRI; hFcγRI
The experiment can be described thus: SPR (Biacore T200), RU at 4.7 µM antibody, anti-LPS antibody O11-1111. For orientation: In SPR one partner is held on a chip, and binding of the other changes the refractive index at the surface.
Experimental: (§1) The binding activity of an anti-EGFR antibody, into which known effectorless mutations were introduced, to human FcγRI (hFcγRI), was evaluated using Biacore™ T200 (Cytiva, Marlborough, MA). […] The noted mutations were introduced into both CH2 domains of the Fc region. […] The FcγRI ligand was captured on a sensor chip on which anti-His antibodies were immobilized. Various anti-EGFR antibodies as analytes were then added to the sensor chip to measure an interaction between the ligand and the analyte by surface plasmon resonance (SPR) method.
(§2) Briefly, anti-6×His tag antibodies [AD1.1.10] (Abcam plc, Cambridge, UK) were immobilized on Sensor Chip CM5 (Cytiva, Marlborough, MA) according to the manufacturer's instructions, and then Recombinant Human Fc gamma RI/CD64 Protein (R & D Systems) prepared at 10 μg/mL in HBS-EP+ (GE Healthcare, Chicago, IL) was captured by contacting it with the sensor chip at 10 μL/min for 60 seconds.

Experiment [2] has as its target T1, Recombinant Human Fc gamma RI/CD64 …. The experiment can be described thus: SPR (Biacore T200); His-tagged receptor captured on anti-His antibody chip, antibody as analyte at 4.7 µM; reference: LALA variant of the same antibody (anti-LPS O11-1111).
Experimental: as §1, §2
In experiment [3] the target is T2, Recombinant Human Fc gamma RIIB/C (CD32b/c) Protein (R&D Systems), His-tagged (human, UniProt P31994 46-217).
T2 construct: also called human FcγRIIb/c; hFcγRIIb/c
T2 sequence: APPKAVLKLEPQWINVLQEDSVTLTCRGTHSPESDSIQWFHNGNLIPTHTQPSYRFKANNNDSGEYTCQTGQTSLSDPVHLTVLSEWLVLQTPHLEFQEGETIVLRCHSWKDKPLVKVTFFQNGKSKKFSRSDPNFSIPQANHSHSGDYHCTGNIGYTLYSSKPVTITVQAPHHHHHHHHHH
The experiment is described as follows: SPR (Biacore T200); receptor immobilized directly on CM5 chip, antibody as analyte at 4.7 µM.
Experimental: (§3) After immobilizing human FcγR as a ligand directly on the sensor chip, various anti-EGFR antibodies as analysts were added to the sensor chip to measure an interaction between the ligand and the analysts by the SPR method.

Experiment [4] concerns the target T3, Recombinant Human Fc gamma RIIA/CD32a (R167) Protein (R&D Systems), His-tagged (human, UniProt P12318 36-218).
T3 construct: also called human FcγRIIa; hFcγRIIa
T3 chain: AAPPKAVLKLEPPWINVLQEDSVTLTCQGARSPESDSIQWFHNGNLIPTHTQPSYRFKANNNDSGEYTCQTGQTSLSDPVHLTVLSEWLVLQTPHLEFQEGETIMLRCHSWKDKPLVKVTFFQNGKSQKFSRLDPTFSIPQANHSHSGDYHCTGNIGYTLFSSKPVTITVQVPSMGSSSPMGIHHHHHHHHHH
The description is as above.
Experimental: as §3

Experiment [5] addresses T4, Recombinant Human Fc gamma RIIIA/CD16a protein (R&D Systems), His-tagged (human, UniProt P08637 17-208).
T4 construct: also called human FcγRIIIa; hFcγRIIIa
The experiment is described as above.
Experimental: as §3

Experiment [6] addresses T5, Recombinant Human Fc gamma RIIIB/CD16b Protein (R&D Systems), His-tagged (human, UniProt O75015 20-208).
T5 construct: also called human FcγRIIIb; hFcγRIIIb
T5 chain: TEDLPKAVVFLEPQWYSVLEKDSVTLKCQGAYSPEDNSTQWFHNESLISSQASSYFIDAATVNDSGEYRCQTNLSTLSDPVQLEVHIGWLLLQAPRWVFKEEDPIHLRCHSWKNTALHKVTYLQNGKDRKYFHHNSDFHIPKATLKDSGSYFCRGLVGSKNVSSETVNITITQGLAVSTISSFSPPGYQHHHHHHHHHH
The experiment is described as above.
Experimental: as §3

Experiment [7] has as its target T1, Recombinant Human Fc gamma RI/CD64 …. The experiment is described as follows: SPR (Biacore T200), RU at 4.7 µM antibody, anti-CD70 antibody vorsetuzumab.
Experimental: The FcγRI ligand was captured on a sensor chip on which anti-His antibodies were immobilized. Various anti-EGFR antibodies as analytes were then added to the sensor chip to measure an interaction between the ligand and the analyte by surface plasmon resonance (SPR) method.
Briefly, anti-6×His tag antibodies [AD1.1.10] (Abcam plc, Cambridge, UK) were immobilized on Sensor Chip CM5 (Cytiva, Marlborough, MA) according to the manufacturer's instructions, and then Recombinant Human Fc gamma RI/CD64 Protein (R & D Systems) prepared at 10 μg/mL in HBS-EP+ (GE Healthcare, Chicago, IL) was captured by contacting it with the sensor chip at 10 μL/min for 60 seconds. Then, the anti-EGFR antibody prepared at each of the given concentrations in HBS-EP+ was added to the sensor chip at a flow rate of 30 μL/min for 120 seconds.
Experiment [8] has the same target. The experiment can be described thus: SPR (Biacore T200): His-tagged human FcγRI captured on an anti-His antibody chip, antibody as analyte; RU plotted against antibody concentration.

T1 sequence (P12314 other isoform, or with tags, fused parts or gaps): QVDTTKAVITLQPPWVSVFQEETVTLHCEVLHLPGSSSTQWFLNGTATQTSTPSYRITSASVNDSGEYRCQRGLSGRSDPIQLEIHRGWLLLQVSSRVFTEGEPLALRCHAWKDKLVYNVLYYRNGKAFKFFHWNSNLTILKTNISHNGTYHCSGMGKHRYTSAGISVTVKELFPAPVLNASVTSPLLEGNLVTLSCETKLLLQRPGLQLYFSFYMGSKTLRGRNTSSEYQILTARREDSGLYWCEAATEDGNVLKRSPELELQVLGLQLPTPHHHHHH
T4 sequence (P08637 other isoform, or with tags, fused parts or gaps): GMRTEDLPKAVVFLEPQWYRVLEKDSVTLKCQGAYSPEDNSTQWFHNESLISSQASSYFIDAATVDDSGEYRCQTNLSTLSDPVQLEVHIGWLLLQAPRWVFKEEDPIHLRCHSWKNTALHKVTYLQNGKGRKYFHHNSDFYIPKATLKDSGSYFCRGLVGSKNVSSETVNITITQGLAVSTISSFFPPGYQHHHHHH

B1: LALA-DG variant of the anti-LPS antibody O11-1111 (IgG1) (antibody)
heavy: QVQLVQSGAEVKKPGASVKVSCKASGYTFTSYWINWVRQAPGQGLEWMGNIYPGSSSINYNEKFKSRVTITADTSTSTAYMELSSLRSEDTAVYYCARTIYNYGSSGYNYAMDYWGQGTLVTVSSASTKGPSVFPLAPSSKSTSGGTAALGCLVKDYFPEPVTVSWNSGALTSGVHTFPAVLQSSGLYSLSSVVTVPSSSLGTQTYICNVNHKPSNTKVDKRVEPKSCDKTHTCPPCPAPEAAGGPSVFLFPPKPKDTLMISRTPEVTCVVVGVSHEDPEVKFNWYVDGVEVHNAKTKPREEQYNSTYRVVSVLTVLHQDWLNGKEYKCKVSNKALPAPIEKTISKAKGQPREPQVYTLPPSREEMTKNQVSLTCLVKGFYPSDIAVEWESNGQPENNYKTTPPVLDSDGSFFLYSKLTVDKSRWQQGNVFSCSVMHEALHNHYTQKSLSLSPGK
light: DIVMTQSPDSLAVSLGERATINCKASENVGNSVSWYQQKPGQPPKLLIYGASNRYTGVPDRFSGSGSGTDFTLTISSLQAEDVAVYYCGQSYSYPYTFGQGTKVEIKRTVAAPSVFIFPPSDEQLKSGTASVVCLLNNFYPREAKVQWKVDNALQSGNSQESVTEQDSKDSTYSLSSTLTLSKADYEKHKVYACEVTHQGLSSPVTKSFNRGEC
notes: substitutions in EU numbering; also called Anti-LPS Antibody LALA-DG
Turning to B1, the “RU value relative to the LALA variant” value in experiment [1] was about 0.0033 fold. Further, the “RU value relative to that of the LALA variant” value in experiment [2] was ~0.0033 ratio (LALA-DG RU / LALA RU). Besides, the “binding response (RU)” value was -2.6 RU in experiment [3], -2.2 RU in experiment [4], -7.2 RU in experiment [5] and -7.1 RU in experiment [6].

B2: LALA-DG variant of the anti-CD70 antibody vorsetuzumab (IgG1) (antibody, name in EU numbering)
heavy: QVQLVQSGAEVKKPGASVKVSCKASGYTFTNYGMNWVRQAPGQGLKWMGWINTYTGEPTYADAFKGRVTMTRDTSISTAYMELSRLRSDDTAVYYCARDYGDYGMDYWGQGTTVTVSSASTKGPSVFPLAPSSKSTSGGTAALGCLVKDYFPEPVTVSWNSGALTSGVHTFPAVLQSSGLYSLSSVVTVPSSSLGTQTYICNVNHKPSNTKVDKRVEPKSCDKTHTCPPCPAPEAAGGPSVFLFPPKPKDTLMISRTPEVTCVVVGVSHEDPEVKFNWYVDGVEVHNAKTKPREEQYNSTYRVVSVLTVLHQDWLNGKEYKCKVSNKALPAPIEKTISKAKGQPREPQVYTLPPSREEMTKNQVSLTCLVKGFYPSDIAVEWESNGQPENNYKTTPPVLDSDGSFFLYSKLTVDKSRWQQGNVFSCSVMHEALHNHYTQKSLSLSPGK
light: DIVMTQSPDSLAVSLGERATINCRASKSVSTSGYSFMHWYQQKPGQPPKLLIYLASNLESGVPDRFSGSGSGTDFTLTISSLQAEDVAVYYCQHSREVPWTFGQGTKVEIKRTVAAPSVFIFPPSDEQLKSGTASVVCLLNNFYPREAKVQWKVDNALQSGNSQESVTEQDSKDSTYSLSSTLTLSKADYEKHKVYACEVTHQGLSSPVTKSFNRGEC
notes: also called Anti-CD70 Antibody LALA-DG
For the molecule B2, the “RU value relative to the LALA variant” value in experiment [7] is about 0.005 fold. Moreover, the results for the “binding response (RU)” value in experiment [3], in experiment [5] and in experiment [6] were 1.3 RU, -2.1 RU and -3.7 RU, respectively. Further, the binding result in experiment [8] is recorded as “no binding (tested: 4.7 µM)”.
